The text below walks through data of US12618835B2, “Multiplex microelectrode array for detection of proteases as biomarkers” (Kansas State University Research Foundation, priority 2021, dated 2026).

Where no end group is shown, it is not given here. [ ]: non-standard residue; d: D form. The star is where a group is joined. aminomethylferrocene = [Fe+2].c1cc[c-](CN*)c1.c1cc[cH-]c1; Ava = NCCCCC(=O)O

Assay [1] addresses T1, cathepsin B (Homo sapiens, UniProt P07858). Nature of the assay: Determination of cleavage sites by HPLC-MS. As to conditions: 50 mM MES pH 5.0, 250 mM NaCl, 0.17 μM cathepsin B, 2 h and 3 h. In kind it is biochemical. The arrangement: purchased R&D Systems Inc. (Minneapolis, MN). An excerpt:
Here, the data is normalized to the value of ip0 derived from the fitting data according to eq 9. This normalization accounts for variations in I′ of the peptide-Fc substrate between each of the electrodes, and the values of ip0 and values of ip0 are listed in Table S3. […] FIG. 8b is a bar graph illustrating the differences in the measured values of 1/τ broken down by channels with H-16 (shown in blue), H-15 (shown in red) and H-3 (shown in green), similar to FIG. 8a. Here the average values of 1/τ were measured to be (8.9±1.1)×10^−4 s^−1, (6.8±1.8)×10^−4 s^−1, and (7.4±0.9)×10^−4 s^−1 for H-16, H-15 and H-3, respectively. These three peptides show similar values of 1/τ because the majority of the amino acid sequences are similar. […] For peptide H-15, all analyte solutions contained 6.5 mM peptide H-15, 50 mM MES buffer (pH 5.0) and 250 mM NaCl. Chromatograms of the peptide in the solution were then analyzed. H-15 appeared at 35.9 min in the chromatogram as verified by mass spectrometry. After incubation with cathepsin B for 2 h the cleaved fragment connected to the Fc moiety appeared at 16.0 min in the chromatogram as verified by mass spectrometry [showing a mass of 626.5 [M+23(Na)] in the mass spectrum]. A final chromatogram of peptide H-15 obtained after incubation with 5.75 ng/μL (0.17 μM) cathepsin B for 3 h confirms the cleavage site. Analyte solution for peptide H-16 was 50 mM MES (pH 5.0) and 250 mM NaCl. The hexapeptide appeared at 33.4 min in the HPLC chart and its structure was verified by mass spectrometry analysis. After treatment of hexapeptide H-16 with cathepsin B in 50 mM MES (pH 5.0) and 250 mM NaCl for 2 h the cleaved fragment appeared at 16.0 min and its structure was verified by MS analysis [showing a mass of 625.043 (M−H2+1) in the mass spectrum]. Cleavage was confirmed by incubation of 6.5 mM peptide H-16 in 50 mM MES (pH 5.0) and 250 mM NaCl incubated with 5.75 ng/μl (0.17 μM) cathepsin B for 3 h.
The cleavage sites of the hexapeptide-Fc substrates were examined using HPLC as described above. Analytical HPLC was performed with a Shimadzu SCL-10A HPLC system fitted with a proto 300 C18 reverse phase semi-prep column (10 μm, 250×10 mm). The flow rate was 1 ml/min with a gradient elution starting from 100% solvent A (water containing 0.1% TFA) to 20% solvent A and 80% solvent B (acetonitrile containing 0.1% TFA) over 50 min. The UV absorbance was monitored at 254 nm. […] The absorbance peak at ˜33.5 min was peptide H-16 and peak at 16.0 min is assigned as [Leu-Ala-Gly-Val-Ala-NH═CH-Fc]^+ (residues 2-6 of SEQ ID NO:3) (mass of 625.288). […]

The target in assay [2] is T1, cathepsin B. Further details: purchased R&D Systems Inc. (Minneapolis, MN). As to conditions: previous finding; cited from earlier work.

Regarding “H2N-(CH2)4-CO-Pro-Leu-Ala-Gly-Val-Ala-NH-CH2-Fc ([Ava]PLAGVA-aminomethylferrocene) [Peptide H-16]”, the “cleavage site by cathepsin B” value in the assay with cathepsin B [1] is recorded as “between Pro-Leu”.
As to “H2N-(CH2)4-CO-Pro-Leu-Ala-Phe-Val-Ala-NH-CH2-Fc ([Ava]PLAFVA-aminomethylferrocene) [Peptide H-15]”, the “cleavage site by cathepsin B” value with cathepsin B [1] was “between Leu and Ala residues”; in the assay with cathepsin B [1] (listed as peptide-Fc), “between Leu and Ala”.
As for “H2N-(CH2)4-CO-Pro-Leu-Arg-Phe-Gly-Ala-NH-CH2-Fc ([Ava]PLRFGA-aminomethylferrocene) [Peptide H-3]”, in the assay with cathepsin B [1], the “cleavage site by cathepsin B” value is “between Gly-Ala and Phe-Gly residues”. In addition, the “cleavage site by cathepsin B (found previously)” value with cathepsin B [2] was “between the Gly-Ala residues and between the Phe-Gly residues”.
